{"source": "patent US8951792B2", "about": "“Methods for making definitive endoderm hepatocyte (DE-hep) progenitor cells” (Cellartis AB, priority 2007, dated 2015)", "molecules": {"B1": {"name": "Activin A (protein, UniProt P08476 311-426, looked up)", "Inhibin beta A chain": "GLECDGKVNICCKKQFFVSFKDIGWNDWIIAPSGYHANYCEGECPSHIAGTSGSSLSFHSTVINHYRMRGHSPFANLKSCCVPTKLRPMSMLYYDDGQNIIKKDIQNMIVEECGCS", "notes": "TGF-beta family member used at 100 ng/ml to induce definitive endoderm"}, "B2": {"name": "Activin B (protein, UniProt P09529 293-407, looked up)", "Inhibin beta B chain": "GLECDGRTNLCCRQQFFIDFRLIGWNDWIIAPTGYYGNYCEGSCPAYLAGVPGSASSFHTAVVNQYRMRGLNPGTVNSCCIPTKLSTMSMLYFDDEYNIVKRDVPNMIVEECGCA"}}, "key": {"hBS cells": {"tested_on": "hBS cells", "assay": "Sox17/Sox7 immunostaining of induced definitive endoderm", "assay_type": "cell-based, human", "conditions": "after 4 days in Activin A", "excerpt": "We used Activin A, and Activin A in combination with Wnt3a and/or FGF2 to generate DE. After 4 to 5 days in Stage 1 the hBS cell colony differentiated and genetic markers for early DE were examined using quantitative real-time real time-PCR (Q-PCR). Activin A induced a strong wave of early endoderm at day 3 to 5, and was highlighted by high expression levels of Sox17, HNF3beta (HNF3b or HNF3b) and Cxcr4 expression (FIG. 4) and then reduced to near baseline levels (data not shown). […] Furthermore they up regulate early liver markers like AFP or AAT. At this early stage in differentiation and development, this indicates the presence of extraembryonic endoderm (E×E) in intrinsically differentiating colonies (FIGS. 5 and 10). The expression data were confirmed by co-staining of Sox17/Sox7, Sox17/Cxcr4, Sox17/Oct4, Sox7/HNF3b (data not shown). […] The changes of gene expression after Activin A treatment were associated to morphological changes and distinct differentiation pattern of the colonies (FIG. 2). After 4 to 5 days induction with Activin A containing medium cells gathered together and formed a ring of epithelial cells around the colony. […]\nActivin A induces definitive endoderm detected by a combination of Sox17+/Sox7-, 80-90% of the total cells in a Activin A or Activin A/FGF2 treated culture are estimated to be Sox17 positive and negative for Sox7 (manual counting in microscope). […]"}, "hESC line SA002": {"tested_on": "hESC line SA002", "assay": "Substituting Activin A with Activin B for induction of endoderm, real-time PCR", "assay_type": "cell-based, human", "conditions": "100 ng/ml with 5 ng/ml bFGF, 5 days", "protocol": "Undifferentiated hESC line SA002 were exposed to either activin A (100 ng/ml) or activin B (100 ng/ml) in the presence of 5 ng/ml bFGF for 5 days and analyzed for gene expression.\nmRNA expression of Foxa2, Sox17, CXCR4, Sox7, CDX2, MT was measured by real-time PCR using the ABI/TaqMan method. In short, RNA was isolated from the cell cultures by using Qiagen's RNeasy system. cDNA was synthesized by using the ABI high capacity cDNA synthesis kit. RT-PCR was performed in a ABI 7500 by using TaqMan probe. The expression level was normalized to CREBBP expression."}}, "data": [{"molecule": "B1", "values": [{"measurement": "remaining cells Sox17 positive", "setting": "hBS cells", "result": "more than 70%"}]}, {"molecule": "B2", "values": [{"measurement": "extraembryonal (ExE) markers Sox7, CDX2 and MT compared to activin A", "setting": "hESC line SA002", "result": "the same or lower"}, {"measurement": "mRNA expression of endodermal markers Foxa2, Sox17 and CXCR4 compared to activin A", "setting": "hESC line SA002", "result": "either the same or even higher"}]}]}
